# According to the supplement of paper PMC12042874:
# ± gives the uncertainty stated by the source.
# Test: amyloid nucleation score (Sup35N fusion, yeast selection) (log enrichment); library NNK1; higher = more nucleation; inactive = no reads after selection
# In short: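 Plasmid inserts were Illumina-sequenced at input and output from psi-negative yeast expressing Sup35N fused to peptides of 20 random codons. The yeast were induced with 100 μM copper sulfate for 24 hours and grown 7 days at 30°C on medium lacking adenine and uracil, and sequences with under 100 input reads were excluded. Nucleation score is the DiMSum log enrichment of output over input reads, centred on the mode score of non-aggregating sequences.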
row,Substance,amyloid nucleation score
1,AGKCGIQWACEM,0.194 ± 0.69
2,AGLITSDDMAYWIGILFCNL,2.57 ± 0.14
3,AGQVYRFAVSVRSSKLIVAR,0.966 ± 0.45
4,AGSGMLSKLVLLSRKSMVIT,1.92 ± 0.21
5,AGVCYWTLDILPY,0.789 ± 0.9
6,AHCLECGMNVNGTIF,-0.81 ± 1.6
7,AHSAYL,0.43 ± 0.4
8,AIRFDLVTFAAIEGIIYKGR,0.136 ± 1
9,AISAYELSRIRVQS,0.487 ± 0.55
10,AKGCNMWI,2.3 ± 0.32
11,AKGYTEMVKYHRVSTTMVFM,inactive
12,AKHVLGNHAIRNGSKL,0.258 ± 0.3
13,AKIWVWSWWY,0.039 ± 0.47
14,AKLWQY,-0.185 ± 1.1
15,AKPMNKTEYFSAYLQLHMGI,3.1 ± 0.12
16,ALCFGR,inactive
17,ALHCQPVGH,-0.006 ± 0.32
18,ALIFLGYMLRRRYWIYRLLS,0.07 ± 0.58
19,ALIYPILILYGV,1.52 ± 0.85
20,ALMDKDLCLNMSGQKSLWFR,0.073 ± 0.48
21,ALMDTCSVSSARGHDPCNRP,-0.413 ± 0.78
22,ALNGSNRIIACTIIWCVVW,2.51 ± 0.18
23,ALRNCQNMRPYKTPVRPTVA,1.34 ± 0.71
24,ALSEFIFGLWLSFLIPRYMW,1.21 ± 0.56
25,ALTVTCFLVPGSYIIHVGMK,-0.332 ± 0.37

row,Substance,amyloid nucleation score
1,ALYSQGSSTV,-1.15 ± 1.1
2,AMPADIILVVGLSCDDRREG,0.724 ± 0.52
3,AMQYYIHQLVVDLSGLM,6.57 ± 0.077
4,AMYHLGQSSLLYSRPFNSTK,-0.595 ± 1.6
5,ANADDMLRFRGDF,0.243 ± 0.44
6,ANAELVYNRLFRSTNPLGCV,inactive
7,ANLCSCSTTMA,0.236 ± 0.39
8,ANLDQCYIMEWGSTESSKL,0.302 ± 1
9,ANLVWDYFQVSTSPMCPLVQ,-2.07 ± 2.4
10,ANNNEYRFWTTSYW,0.041 ± 1.4
11,ANRNDCTQFTDSK,-0.41 ± 0.27
12,APDRNDHDKLCCLCDNWSAL,0.056 ± 1.4
13,APEGLPMDAPGLGWVNRVII,-0.295 ± 0.8
14,APHTTTLTRKSFDNGCGGFG,0.001 ± 0.38
15,APRYHAVFLLII,-0.505 ± 0.79
16,APSYRATWRAVNCAILGPLY,-0.567 ± 0.61
17,AQDLPLVTRNCKCMRRHLWV,-0.171 ± 0.42
18,AQFFVLSSLW,-0.085 ± 0.93
19,AQGVNSFCIEVFHCEGVMDP,-0.003 ± 0.38
20,AQSPQVNSLWCGMNFTTFPG,1.92 ± 0.2
21,AQTPRLLKVG,-1.01 ± 1.8
22,ARGTGGSKAAPNYLVYTGCR,0.684 ± 0.48
23,ARGYAGVRRLVGYR,0.133 ± 0.56
24,ARGYPLTYKYQVSRGSRLTL,0.439 ± 0.4
25,ARMASHRTCLNVYLRLCAYL,-0.343 ± 0.31

row,Substance,amyloid nucleation score
1,ARSCVLNLVPGFSPSFGT,-0.426 ± 0.52
2,ARWKKQWFYT,0.796 ± 0.58
3,ASAWGLGYEFPWSRSYSAKT,-0.209 ± 0.9
4,ASFVSLVSAPESFNGFAVQN,-0.006 ± 0.48
5,ASIYMLRFMDLT,-0.244 ± 0.71
6,ASLAIGFSIKSHYVMCRVYP,0.42 ± 0.35
7,ASMPAFAT,0.413 ± 0.72
8,ASMWSWRYHMEAINSTKAEA,-0.745 ± 2.4
9,ASNAARLLPDRISGSEAF,0.591 ± 0.71
10,ASRMFMSFLYYSMLLWLLNV,-1.66 ± 0.85
11,ASRSCIVSRRASGPHVCCQV,0.098 ± 0.91
12,ASRYGDF,0.555 ± 0.42
13,ATQNLKY,0.824 ± 0.79
14,AVCVMWANGLVYMTSLECER,-0.679 ± 0.35
15,AVCVPVSKDGPVKGKFINKY,0.329 ± 0.41
16,AVELAKSPLWIPKLGYVMNQ,0.233 ± 0.48
17,AVFDSKLFLQSWVASTGIRV,inactive
18,AVFGTIIESFMSGG,0.399 ± 0.34
19,AVFLVRAPSTRGLARMVDLA,inactive
20,AVGGDSMYSLQSGYKLILAS,0.288 ± 0.35
21,AVGRPPIRYRNTHSISTDSE,0.565 ± 0.31
22,AVLNFIQVVVVVEVVGCYQH,2.68 ± 0.28
23,AVSIRCFGRMMTLSGSKIAG,0.838 ± 0.25
24,AWGRLAGYRRGSWMYYCCNS,0.435 ± 0.82
25,AWILRWKEIPMEYSLSS,0.202 ± 0.56

row,Substance,amyloid nucleation score
1,AWNCHKFND,0.668 ± 0.78
2,AWQRVSVKFELGDIGPEGLY,-0.668 ± 0.31
3,AYEGKGITGHLIFSWKSKSL,1.55 ± 0.13
4,AYFMGHCLKGPRVTLVGCKT,0.525 ± 0.65
5,AYGKRTNTRICDNKTLGVSS,-0.745 ± 2.4
6,AYHNDWR,-0.85 ± 0.76
7,AYIDKMCTPYNKGRLLMHWY,1.97 ± 0.48
8,AYIVNIELGNRTS,7.04 ± 0.056
9,AYNAECSVWSRRCSIAVMDL,0.757 ± 0.58
10,AYNDSAVGRAGGLFVVGLFV,-0.51 ± 0.58
11,AYSSARHFFTLTFKEIRFGR,0.141 ± 1.4
12,AYWSGTYEGEWYLVDRQFYW,0.542 ± 1
13,AYYSRNIIKPGKKVEVPKMG,-1.01 ± 0.72
14,CAFCI,-0.766 ± 1
15,CAHIY,-0.747 ± 0.99
16,CAKGCCD,-0.344 ± 0.72
17,CALAIRIVCS,inactive
18,CASRFMCGPTINKWVR,-1.02 ± 1.1
19,CAYVVVLLCSVLVDAGYVCR,1.94 ± 0.17
20,CCADPMHYTFHSSNLVFPLM,0.294 ± 0.37
21,CCERGWS,0.156 ± 0.72
22,CDGVMKSGVKKMSTSRDWFM,inactive
23,CDIIYFACGDREV,inactive
24,CDLLRSLTVS,0.946 ± 0.6
25,CDNSLDSIWFVSVSWN,1.16 ± 0.69

row,Substance,amyloid nucleation score
1,CDVLFGLLSLRYLPSSLRIG,-0.434 ± 0.48
2,CFCPSKGDTDRLWAHFSARF,-0.093 ± 0.45
3,CFFEILLSMISTMPRNVKLR,-0.28 ± 0.41
4,CFFMEFYVPNSIIIYVRTPV,-1.89 ± 0.96
5,CFINSDVMVLLVTTYHYS,7.321 ± 0.071
6,CFRYVCIILMSVLMNYNFVY,-0.05 ± 0.2
7,CFSLLNYSCFSCIDLFHPLY,5.23 ± 0.084
8,CFSMILVYYVLFARFVSWSM,0.15 ± 0.41
9,CFVVHMSKEFYGRYFVRRIN,inactive
10,CGDMKRSHGCYFGPRNRFCW,0.517 ± 0.47
11,CGFALSRQVDILILLADSYD,0.167 ± 1.1
12,CGHMR,0.327 ± 0.33
13,CGIING,-1.08 ± 1.7
14,CGLKNFGVLSFRSIDCQRKG,-1.48 ± 1.1
15,CGLLVVLRANVFILCGYK,0.399 ± 0.24
16,CGSRVDGSCTAGTSIWVVDV,0.528 ± 0.66
17,CGWSSMIVP,0.343 ± 0.63
18,CHNVVGSVKRIRSKFMKCFV,inactive
19,CHYGDPSGWGQLTPSTWTGE,0.573 ± 0.42
20,CIFFVNTGHGYLWQDYAHSN,3.58 ± 0.15
21,CISLFFVKCGRQAAHPQSRR,8.295 ± 0.062
22,CITFMVRYGLRLHR,0.089 ± 0.58
23,CIVYFSCLMYHWILDC,0.422 ± 0.65
24,CIWQWVKDNDDNKVAS,-1.04 ± 0.46
25,CIYELRGLVRFWSHRVNRER,-0.445 ± 0.45

row,Substance,amyloid nucleation score
1,CKGFK,inactive
2,CKSESRFLFAYNSLCLKSMG,-0.043 ± 0.3
3,CKTLMLCTRICFDANQLASR,1.71 ± 0.78
4,CLAGLYNCGGR,0.679 ± 0.65
5,CLATLSMSYLLFVSGLRRIK,-0.554 ± 0.59
6,CLDMVWDLTVMFMF,1.11 ± 0.19
7,CLEVFKNGCRNLRTGRVINR,1.03 ± 0.9
8,CLFDATVLNVLYQEIAEPRR,inactive
9,CLGHISVMNVTASNANYHFS,7.237 ± 0.053
10,CLIRIVKF,1.08 ± 0.7
11,CLIVKRIFFYLNYHKKVELL,-0.573 ± 1.4
12,CLIYYVYSRWIIPMYITGRR,-0.27 ± 0.81
13,CLNGMQPHKWFGMCVWVCPC,-0.212 ± 0.58
14,CLQCKCYNNCVQLRVTVGCM,1.37 ± 0.52
15,CLSDGTMAFPCPGRQDVRTV,-0.015 ± 0.34
16,CLSSSH,-0.322 ± 0.38
17,CLSYI,-0.172 ± 0.27
18,CLTKEYVRGFLNPGRHRTRQ,-0.271 ± 0.36
19,CLVERATITHFASCVEAYFY,-0.224 ± 1.4
20,CMGPYFSGMSEFRGTLSVHA,-0.491 ± 1.9
21,CMLREPKRKYPVKIMCSLLV,inactive
22,CMSLYRGFLTPEWNIFVWLA,0.514 ± 0.61
23,CMSVVNLRCPDRTLVSLLPY,-0.326 ± 1.1
24,CMVMFCCWNMWVDSVH,7.237 ± 0.069
25,CMWSRRWGTLLASILVLSYG,0.081 ± 0.34

row,Substance,amyloid nucleation score
1,CNIMRSLWLGAIVCMSTMYC,-0.396 ± 0.73
2,CNIVFSPGTDNVVEIRVRKL,4.15 ± 0.062
3,CNLSTCSFHFHFLT,4.53 ± 0.11
4,CNMHATETLNIRCVNSDAC,0.046 ± 1.6
5,CPVFQHDDKDWLGVFKWLRN,-1.32 ± 2.4
6,CQNYSHLWGEVTEWLCQRGP,3.39 ± 0.17
7,CQRAFI,-0.041 ± 0.77
8,CRASYGFHVQRDALDR,-0.438 ± 0.75
9,CRFKYHLRV,-1.21 ± 2.4
10,CRGNLIL,-0.578 ± 0.29
11,CRHLFNWASWSTFTRIS,0.375 ± 0.23
12,CRLKSMMVRNSWSVCSSGWG,0.32 ± 0.5
13,CRLYVVGFFKKL,inactive
14,CRNSTVGITLIGWTSHFFNI,1.2 ± 0.76
15,CRNVRQSCGYIYYCSRKHLA,0.546 ± 0.49
16,CRQGMTLAVREPGASTSVYN,0.47 ± 0.71
17,CRSHRGHMCSLVSYLAHGSS,inactive
18,CRVMEKIEVCYIRYFFSWLD,0.574 ± 0.39
19,CRYTITFLVQKYLLDFFA,-0.074 ± 0.35
20,CSCVVVNCNWYG,8.609 ± 0.071
21,CSDSVGSIYSHVRSGGLE,inactive
